Assay results taken from paper PMC10933337, “RhoGDI phosphorylation by PKC promotes its interaction with death receptor p75^NTR to gate axon growth and neuron survival” (EMBO Reports, 2024).

Legend:
p75NTR [1] = molecular target: p75NTR (UniProt Q9Z0W1); test: p75NTR IP, Flag-RhoGDI immunoblot; details: reference: wild type RhoGDI; sites S34
p75NTR [2] = molecular target: p75NTR (UniProt Q9Z0W1); test: p75NTR IP, Flag immunoblot; details: reference: RhoGDI-59 wild type, PMA; sites S34
[3] = molecular target: T1, human p75^NTR JXT domain (K273-D332) (human, UniProt P08138 273-332); test: NMR titration; unlabeled p75NTR JXT titrated to 15N-labeled RhoGDI NTD S34D, [1H-15N] HSQC, 28 °C, 10 mM PIPES pH 6.8; 0.3 mM RhoGDI NTD and 1.5 mM p75NTR JXT; details: both partners purified
T1 construct: juxtamembrane domain of human p75NTR, K273-D332, ~6.6 kDa; Cloned in a pET-32a-derived vector; unlabeled or 15N,13C-labeled for NMR; source: E. coli BL21 (DE3), purified (Ni-NTA, TEV cleavage, gel filtration, MonoS ion exchange)
T1 sequence (looked up): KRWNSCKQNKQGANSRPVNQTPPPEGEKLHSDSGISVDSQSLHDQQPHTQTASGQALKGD

With RhoGDI (from UniProt Q99PT1) S34A the “binding against the reference” value (p75NTR [1]) was “weaker”.

With “RhoGDI RhoGDI-59, 59 N-terminal residues (fused to GST) (from UniProt Q99PT1) RhoGDI-59 S34A, PMA” the “binding against the reference” value (p75NTR [2]) was “lost”.

B1: human RhoGDI NTD^S34D (A2-A60) (domain or fragment, UniProt P52565 2-60, looked up)
chain: AEQEPTAEQLAQIAAENEEDEHSVNYKPPAQKDIQEIQELDKDDESLRKYKEALLGRVA
notes: N-terminal domain of RhoGDI, A2-A60, ~6.8 kDa, with the phosphorylation-mimetic mutation S34D; Cloned in a pET-32a-derived vector; 15N- or 15N,13C-labeled or unlabeled for NMR; source: E. coli BL21 (DE3), purified (Ni-NTA, TEV cleavage, gel filtration, MonoQ ion exchange)
B1: binds [3].
